Drawing on doi:10.1101/2022.11.11.516191, this text covers stoichiometry N for three molecules.

Test in all cases: SEC
What all share (conditions): remark: other sources report otherwise

The target in assay [1] is T1, 14-3-3 β 130nY (human), P31946.
T1 chain: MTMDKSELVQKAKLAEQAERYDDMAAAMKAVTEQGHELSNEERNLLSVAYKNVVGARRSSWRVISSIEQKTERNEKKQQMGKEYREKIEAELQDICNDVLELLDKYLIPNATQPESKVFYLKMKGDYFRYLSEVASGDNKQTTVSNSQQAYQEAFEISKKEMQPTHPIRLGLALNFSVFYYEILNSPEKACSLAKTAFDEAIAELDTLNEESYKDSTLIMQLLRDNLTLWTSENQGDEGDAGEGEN

Assay [2] addresses T2, 14-3-3 β 213nY (human), P31946.
T2 chain: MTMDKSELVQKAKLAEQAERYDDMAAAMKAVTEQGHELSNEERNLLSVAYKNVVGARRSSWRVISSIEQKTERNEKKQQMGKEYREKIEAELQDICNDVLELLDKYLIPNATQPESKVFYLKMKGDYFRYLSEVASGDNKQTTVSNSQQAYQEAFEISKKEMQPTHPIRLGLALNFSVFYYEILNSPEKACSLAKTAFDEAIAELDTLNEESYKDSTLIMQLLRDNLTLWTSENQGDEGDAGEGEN

For assay [3], the target named is T3, 14-3-3 β wild-type (human), P31946.
T3 chain: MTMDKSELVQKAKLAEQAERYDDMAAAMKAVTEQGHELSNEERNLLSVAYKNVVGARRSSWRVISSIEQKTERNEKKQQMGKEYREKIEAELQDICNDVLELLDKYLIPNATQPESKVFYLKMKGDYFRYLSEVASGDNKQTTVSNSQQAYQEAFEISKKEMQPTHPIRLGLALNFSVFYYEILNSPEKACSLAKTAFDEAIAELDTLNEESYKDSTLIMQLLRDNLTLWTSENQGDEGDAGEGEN

B1: 14-3-3 β 130nY, P31946 1-246 (natural protein)
chain: MTMDKSELVQKAKLAEQAERYDDMAAAMKAVTEQGHELSNEERNLLSVAYKNVVGARRSSWRVISSIEQKTERNEKKQQMGKEYREKIEAELQDICNDVLELLDKYLIPNATQPESKVFYLKMKGDYFRYLSEVASGDNKQTTVSNSQQAYQEAFEISKKEMQPTHPIRLGLALNFSVFYYEILNSPEKACSLAKTAFDEAIAELDTLNEESYKDSTLIMQLLRDNLTLWTSENQGDEGDAGEGEN
modifications: here or on the partner: 3-nitro-tyrosine at 130 (β-isoform numbering); 3-nitro-tyrosine at 130 (β-isoform numbering)
In turn, B1 gave a stoichiometry N in assay [1] of 2.

B2: 14-3-3 β 213nY, P31946 1-246 (natural protein)
chain: MTMDKSELVQKAKLAEQAERYDDMAAAMKAVTEQGHELSNEERNLLSVAYKNVVGARRSSWRVISSIEQKTERNEKKQQMGKEYREKIEAELQDICNDVLELLDKYLIPNATQPESKVFYLKMKGDYFRYLSEVASGDNKQTTVSNSQQAYQEAFEISKKEMQPTHPIRLGLALNFSVFYYEILNSPEKACSLAKTAFDEAIAELDTLNEESYKDSTLIMQLLRDNLTLWTSENQGDEGDAGEGEN
modifications: here or on the partner: 3-nitro-tyrosine at 213 (β-isoform numbering); 3-nitro-tyrosine at 213 (β-isoform numbering)
With B2, the stoichiometry N in assay [2] was 2.

B3: 14-3-3 β wild-type, P31946 1-246 (natural protein)
chain: MTMDKSELVQKAKLAEQAERYDDMAAAMKAVTEQGHELSNEERNLLSVAYKNVVGARRSSWRVISSIEQKTERNEKKQQMGKEYREKIEAELQDICNDVLELLDKYLIPNATQPESKVFYLKMKGDYFRYLSEVASGDNKQTTVSNSQQAYQEAFEISKKEMQPTHPIRLGLALNFSVFYYEILNSPEKACSLAKTAFDEAIAELDTLNEESYKDSTLIMQLLRDNLTLWTSENQGDEGDAGEGEN
Molecule B3 gave a stoichiometry N in assay [3] of 2.
